The text below walks through data of publication PMC5527709 (Drug delivery and translational research, 2013).

Assay [1] addresses T1, human CD133 protein (coated on ELISA wells) (human) (UniProt O43490).
T1 sequence: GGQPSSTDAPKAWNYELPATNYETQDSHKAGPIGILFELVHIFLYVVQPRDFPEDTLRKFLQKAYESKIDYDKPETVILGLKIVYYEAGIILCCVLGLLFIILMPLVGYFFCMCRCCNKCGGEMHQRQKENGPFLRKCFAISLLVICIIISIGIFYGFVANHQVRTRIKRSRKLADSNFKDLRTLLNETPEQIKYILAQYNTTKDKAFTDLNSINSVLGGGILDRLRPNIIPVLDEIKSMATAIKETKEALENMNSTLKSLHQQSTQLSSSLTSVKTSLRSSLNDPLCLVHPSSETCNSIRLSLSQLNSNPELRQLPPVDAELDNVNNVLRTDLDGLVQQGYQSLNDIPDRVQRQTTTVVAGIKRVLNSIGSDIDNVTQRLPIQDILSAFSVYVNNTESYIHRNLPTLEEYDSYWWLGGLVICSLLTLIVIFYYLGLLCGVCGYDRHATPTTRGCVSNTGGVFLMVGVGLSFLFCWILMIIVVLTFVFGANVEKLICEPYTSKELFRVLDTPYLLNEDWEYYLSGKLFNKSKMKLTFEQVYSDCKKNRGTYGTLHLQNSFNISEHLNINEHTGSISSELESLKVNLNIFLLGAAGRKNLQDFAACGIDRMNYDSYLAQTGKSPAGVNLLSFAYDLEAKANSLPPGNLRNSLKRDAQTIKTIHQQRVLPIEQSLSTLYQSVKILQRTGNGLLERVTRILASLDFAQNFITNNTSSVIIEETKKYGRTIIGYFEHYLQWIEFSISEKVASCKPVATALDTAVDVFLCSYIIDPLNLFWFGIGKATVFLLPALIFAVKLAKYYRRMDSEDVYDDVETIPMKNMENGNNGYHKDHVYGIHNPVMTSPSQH
Put plainly: ELISA. For orientation: An ELISA detects its analyte on a solid surface through an enzyme-linked reagent.

In assay [2] the target is human CD133 on Caco-2 cells (Homo sapiens, endogenous in Caco-2, UniProt O43490). The assay is described as follows: flow cytometry on cells.

B1: anti-CD133 scFv clone 11, HA-tagged, secreted into bacterial culture supernatant (scFv, V domains shown)
VH: EVKLVESGPELKKPGETVKISCKASGYTFTDYSMHWVNQAPGKGLKWMGWINTETGEPSYADDFKGRFAFSLETSASTAYLQINNLKNEDTATYFCATDYGDYFDYWGQGTTLTVSS
VL: DIVLSQSPAIMSASPGEKVTISCSASSSVSYMYWYQQKPGSSPKPWIYRTSNLASGVPARFSGSGSGTSYSLTISSMEAEDAATYYCQQYHSYPPTFGAGTKLELK
In turn, B1 came in with an absorbance at 450 nm in assay [1] of 0.9 AU.

B2: anti-CD133 scFv (clone 11) without HA epitope tag, FITC-labelled (scFv, V domains shown)
VH: B1 VH
VL: B1 VL
With B2, the binding result in assay [2] was “binds”.
